Experimental data as given in US20220333113.
Residue numbers refer to the chain shown, from its start. pKd: −log10 of the molar value.

Key:
[1] = target: T1, RIG-I D872A (Homo sapiens) (UniProt O95786); test: filter; conditions: J = PPdU at every J; SB18T0.01 + 1 mM DTT, 37 C
T1 sequence: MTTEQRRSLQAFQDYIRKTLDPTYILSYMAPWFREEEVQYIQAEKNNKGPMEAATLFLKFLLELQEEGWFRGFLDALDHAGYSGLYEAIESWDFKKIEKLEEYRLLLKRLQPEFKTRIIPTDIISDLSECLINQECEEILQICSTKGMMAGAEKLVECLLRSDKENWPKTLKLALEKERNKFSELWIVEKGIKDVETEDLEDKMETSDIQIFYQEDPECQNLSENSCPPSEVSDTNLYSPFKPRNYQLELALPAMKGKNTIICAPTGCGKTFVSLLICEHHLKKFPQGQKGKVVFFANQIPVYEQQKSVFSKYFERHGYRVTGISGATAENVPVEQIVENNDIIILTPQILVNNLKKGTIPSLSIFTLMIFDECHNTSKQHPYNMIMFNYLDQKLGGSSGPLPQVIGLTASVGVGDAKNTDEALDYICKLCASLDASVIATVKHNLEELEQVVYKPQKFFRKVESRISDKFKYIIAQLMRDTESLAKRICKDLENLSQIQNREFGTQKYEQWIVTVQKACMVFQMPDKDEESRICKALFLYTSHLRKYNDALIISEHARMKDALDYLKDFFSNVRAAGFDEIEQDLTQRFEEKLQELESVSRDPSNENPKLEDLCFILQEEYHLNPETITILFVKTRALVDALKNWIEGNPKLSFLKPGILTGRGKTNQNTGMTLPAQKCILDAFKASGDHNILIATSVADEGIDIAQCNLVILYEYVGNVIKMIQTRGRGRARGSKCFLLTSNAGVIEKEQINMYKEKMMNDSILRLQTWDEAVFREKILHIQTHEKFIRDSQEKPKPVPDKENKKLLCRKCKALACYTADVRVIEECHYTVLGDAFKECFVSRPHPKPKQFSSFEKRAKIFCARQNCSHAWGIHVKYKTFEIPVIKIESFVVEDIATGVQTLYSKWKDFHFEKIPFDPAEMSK

[2] = target: T2, RIG-I WT full-length (Homo sapiens) (UniProt O95786); test: filter; conditions: J = PPdU at every J; SB18T0.01 + 1 mM DTT, 37 C
T2 sequence: T1 sequence with A872D

ATCTCTGTGTCATGTGTTTTAATGTCAGTTTAATGATGAGG [14832-55_8]
pKd [1]: 9.21
pKd [2]: 9.25
